This sample holds only a part of the variants without activity.
B1: TPR 5TU (parent)
chain: GGAUCUUCUCGAUCUAACAAAAAAGACAAAUCUGCCACAAAGCUUGAGAGCAUCUUCGGAUGCAGAGGCGGCAGCCUUCGGUGGCGCGAUAGCGCCAACGUUCUCAACUAUGACACGCAAAACGCGUGCUCCGUUGAAUGGAGUUUAUCAUG

Variants of: B1
Experiment: polymerase ribozyme fitness, log enrichment relative to wild type (log ratio); higher = more active; in vitro selection for triplet polymerase activity
Procedure, shortened: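 The heterodimeric triplet polymerase ribozyme's subunits were each mutagenized into PCR-built libraries and transcribed. Every library was selected once, in triplicate, by annealing with a biotinylated primer, the partner subunit and triplets, incubating frozen at −7 °C, gel-excising extended constructs, capturing on streptavidin beads and running RT-PCR. Input and output libraries were Illumina-sequenced, with genotypes kept only at ≥10 input reads and ≥1 read per output. Fitness, from inverse-variance-weighted replicate averages, is the base-2 logarithm of genotype enrichment over wild-type enrichment.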

**Q.** With GGAUCUUCUCGAUCUAACAAAAAAGACAAAUCUGCCACAAAGCUUGGGAGCAUCAUCGGAUGGAGAGGCGGCAGCCUUCGGUGCCGCGAUAGCGCCAACGUUCUCAACUAUGACACGCAAAACGCGUGCUCCGUUGAAUGGAGUUUAUCAUG as the variant, how does the “polymerase ribozyme fitness (log ratio)” value read?
**A.** ≤ -4.2

**Q.** Which “polymerase ribozyme fitness (log ratio)” value does the source give for GGAUCUUCUCGAUCUAACAAAAAAGACAAAUCUGCCACAAAGCUUGAGAGCAUCUUCGGAUGCAGAGGCGGCAGGGUUCGUUGGCGCGAUAGCGGCAACGUUCUCAACUAUGACACGCAAAACGCGUGCUCCGUUGAAUGGAGUUUAUCAUG here?
**A.** ≤ -4.2

**Q.** For GGAUCUUCUCGAUCUAACAAAAAUGACAAAUCUGCCACAAAGCUUGAGAGCAUCUUCGGAUGCAGAGGCGGCAGCCUUCGGUGGCGCGAUAGCACCAACGUUCUCAACUAUGACACGCAAAACGCGUGCUCCGUUGAAUGGAUUUUAUCAUG, which “polymerase ribozyme fitness (log ratio)” value is on record?
**A.** -3.4

**Q.** For GGAUCUUCUCGAUCUAACAAAAAAGACAAAUCUGCCACAAAGCUUGAGAGCAUCUUCGGAUGCAGAGGCGGCAGCCUUCGGUGGCGCGAUAGCGGUAACGUUCUCAACUAUGACACGCAUACCGCGUGCUCCGUUGAAGGGAGUUUAUCAUG, which “polymerase ribozyme fitness (log ratio)” value is on record?
**A.** -1.86

**Q.** Which “polymerase ribozyme fitness (log ratio)” value does the source give for GGAUCUUCGCGAUCUAACAAAAAAGACAGAUCUGCCACAAAGCUUGCGAGCAACGUCGGAUGCAGAGGCGGCAGCCUUCGGUGGCGCGAUAGCGCCAACGUUCUCAACUAUGACACGCAAAACCCGUGCUCCCUUGAAUGGAAUUUAUCAUG here?
**A.** ≤ -4.2

**Q.** With GGAUCUUCUCGAUCUAACCAAAAGGACAAAUCUGCCACAAAGCUUGAGAGCAUCUUCGGAUGCAGAGGCGGCAGCCUUCGGUGGCGCGAUAGCUGCAACGUUCUCAACUAUGACACGCAAAACGCGUGCUCCGUUGAAUGGAGUUUAUCAUG as the variant, how does the “polymerase ribozyme fitness (log ratio)” value read?
**A.** ≤ -4.2

**Q.** Which “polymerase ribozyme fitness (log ratio)” value does the source give for GGAUCUUCGCGAUCUCACAAAAAAGACAACUCUACCACAAAGCUUGAGAGCAUCUUCUGAUGCAGAGGCGGCAGCCUUCGGUGGCGCGAUAGGGCCAACGUUCUAAACUGUGACACGUAAAACGCGUGCUCCGUUGAAUGGAGUUUAUUAUG here?
**A.** -4.17

**Q.** Which “polymerase ribozyme fitness (log ratio)” value does the source give for GGAUCUUCUCGAUCUAACAAAAAAGAUAAAUCUGCCACAAAGCUUGAGAGCAUCUUCGGAUGCAGAGGCGGCAGCCUUCGGUGGCGCGAUAGCGCCAACGUUCUCAACUAUGACACGCAAAACGCGUGCUCCGUUGAGUGGAGUUUAUCAUG here?
**A.** -3.72

**Q.** Which “polymerase ribozyme fitness (log ratio)” value does the source give for GGAUCUUCUCGAUCUGACACAAAAGACAAAUCUGACACAAAGCAUGGGAGCAUCUUCGGAUGCAGAGGCGGCAGCCUUCGGUGGCGCGAUAGCGCCAACGUUCUCAACUAUGACACGCAAAACGCGUGUUCCGUUGAAUCGAGUUUAUCAUG here?
**A.** ≤ -4.2

**Q.** With GGAUCUUCUCGAUCUAACAAAAAAGACAAAUCUGCCACAAAGCUUGAGAGCAUUUUCGGAUGCAGAGGCGGCAGCCUUCGGUGGCGCGAUAGGGCCAACGUUCUCAACUAUGACACGCAAAACGCGUGCUCCGUUGAAUGGAGUAUAUCAUG as the variant, how does the “polymerase ribozyme fitness (log ratio)” value read?
**A.** ≤ -4.2

**Q.** With GGAUCUUCUCGAUCUAACAAAAAAGACAAAUCUGCCACAAAGCAUGAGAGCAUCUUCUGAUGCAGAGGCCGCAGCAUUCGGUGGCGCGAUGGCGCCAACGUUCUCAACUAUGACCCGCAAAACGCGUGCUCCGUUGAAUGGAGUUUAUCAUG as the variant, how does the “polymerase ribozyme fitness (log ratio)” value read?
**A.** ≤ -4.2

**Q.** For GGAUGUUCUCGAUCUAACAAAAAAGACAAAUCUGCCACAAAGCUUGAGAGCAACUUCGGAUGCAGAGGCGGCAGCCUUCGGUGGCGCGAUAGCGCCAACGUUCUCAACUAUGACACGCAAAACGCGUGCUCCGUUGAAUGGAGUUUAUCAUG, which “polymerase ribozyme fitness (log ratio)” value is on record?
**A.** -1.8

**Q.** With GGAUCUUCUCGAUCUAACAAAAAAGACAAAUCUGCCACAAAGCUUGAGAGCAUUUUCGGAUGCAGAGGCGGCAGCCUUCGGUGACGCGAUAGCGCCAACGUUCUCAACUAUGACACGCAAAACGCGUGCUCCGUUGAAUGGAGUUGAUCAUG as the variant, how does the “polymerase ribozyme fitness (log ratio)” value read?
**A.** -1.56

**Q.** For GGAUCUUCUCGAUCUAACAAAAAAGACAAAUCUGCCACAAAGCUUGAGAGCAUCUUCGGAUGCCGAGGCGGCAGCCUUCGGUGGCGCGAUAGCGCCAACGUUCUCACCUAUGACACGCAAAACGCGUGCUACGUUGAAUGGAGUUUAUCAUG, which “polymerase ribozyme fitness (log ratio)” value is on record?
**A.** ≤ -4.2

**Q.** Which “polymerase ribozyme fitness (log ratio)” value does the source give for GGAUCUUCUCGAUCGAACAAAAAAGACAAAUCUGCCACAAAGCUUGAGAGCAUCUUCGGAUGCAGAGGCGGCAGCCUUCGGUGGCGCGAUAGCGCAAACGUUCUCAACUAUGACACGCAAAACGCGUGCUCCGUUGAAUGGAGUUUAUCAUG here?
**A.** -0.302

**Q.** With GGAUCUUCUCGAUCUAACAAAAAAGACAAAUCUGCCACAAAGCUUGAGAGCAUCUUCGGAUGCAGAGGCGGCAGCCUUCAGUAGCGCGAUAGCGCCAACGUUCUCUACUAUGACAGGCAAAACGCGUGCUCCGUUGAACGGAAUUUAUCAUG as the variant, how does the “polymerase ribozyme fitness (log ratio)” value read?
**A.** ≤ -4.2

**Q.** With GGAUCUUCUCGAUCUAACAAAAAAGACAAAUCUGCCACAAAGCUUGAGAGCAUCAUCGGAUGCAGAGGCGGCCGCCUUCGGUGGCGUGAUAACGCCAACGUUCUCAACUAUGACACGCAAAACGCGUGCUCCGUUGAAUGGAGUUUAUCAUG as the variant, how does the “polymerase ribozyme fitness (log ratio)” value read?
**A.** -2.04

**Q.** Which “polymerase ribozyme fitness (log ratio)” value does the source give for GGAUCUUCUCGAUCUAACAAAAAAGACAAAUCUGCCACAGAGCUUGAGAGCAUCUUCGGAUGCAGAGGCGGCAGCCUUCGGUGGCGCGAUAGCGCCAACGUUCUUAACUAUGACUCGCAAAACGCGUGCUCCGUUGAGUGGAGUUUAUCAUG here?
**A.** ≤ -4.2

**Q.** For GGAUCUUCUCCAUCUAACAAAAAAGACAAAUCUGCCAUAAAGCUUGAGAGCAUCUUCGGAUGCAGAGGCGGCAGCCUUCGGUGGGGCGAUAGCGCCAACGUUCUCAACUAUGACACGCAAAACGCGUGCUCCGUCGAAUGGAGUUUAUCAUG, which “polymerase ribozyme fitness (log ratio)” value is on record?
**A.** ≤ -4.2

Source: the RNAGym collection of RNA variant scans (doi:10.1073/pnas.2313332121)
